The series deals with MS2 coat protein. Briefly: apparent KD of MS2 coat protein; designed switch direction (-1 OFF switch, 1 ON switch): 1; higher = weaker reporter binding. In a few lines:
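Transcription of designed RNA switches on Illumina chips was done by stalled E. coli RNA polymerase. SNAP-549-labelled MS2 coat protein was then titrated in doubling steps from 0.7 or 1.5 nM to 3 µM, with steps of 0.8–1.5 h at the lowest and 10–20 min at the highest concentration. The per-design median over clusters of curve-fitted normalised fluorescence is reported as apparent KD.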

[1] abbreviates: input ligand: microRNA oligo, concentration not stated.
Where [2] appears, read: Eterna round: R95, input ligand: FMN 200 uM.
Setting [3] is: Eterna round: R95, input ligand: microRNA oligo, concentration not stated.
The mark [4] stands for this setting: Eterna round: R95, input ligand: none.

On to “AGCGAAAGCAGUCACAUGAGGAUCACCCAUGUAUUAACUAUUGAGGAUAUGCAGCGACGGGUGUAGCAGAAGGCAGUGAGAAGG [Eternabot solution 30] (Eterna round: R96, puzzle: Same State NG 3)”, for which the “apparent KD of MS2 coat protein” value is, setting by setting: (input ligand: FMN 200 uM) 54.4 nM; under setting [1], 52.1 nM; (input ligand: none) 61.1 nM.
Regarding “AGCUAGUACCGAGGAUAUACGUACAUGAGGAUCACCCAUGUAUACAUGAAAUAAUGAGACUACAUGUAGAAGGCGGUACUAGCA [Mat - Same State NG 2 - JL mod - D50] (Eterna round: R96, puzzle: Same State NG 2)”, the “apparent KD of MS2 coat protein” value by setting is: (input ligand: FMN 200 uM) 14.2 nM; under setting [1], 33.5 nM; (input ligand: none) 48.7 nM.
For “AGCUAUCGAAAACGAUAGCAAAAGCGUGUACAUGAGGAUCACCCAUGUCAUGUACAAGCUUUUUGCUCGUCUUAAAA [Zipper 23 - 6] (puzzle: Sensor for hsa-mir-208a)”, the “apparent KD of MS2 coat protein” value reads like this: under setting [2], 34 nM; under setting [3], 14.4 nM; under setting [4], 41.8 nM.
For the sequence “AGCUAUCGAAAACGAUAGCAUAAGCAUGUACAUGAGGAUCACCCAUGUCAUGUACAAGCUUUUUGCUCGUCUUAAAA [JL zipper 27] (Eterna round: R96, puzzle: Sensor for hsa-mir-208a)”, the “apparent KD of MS2 coat protein” value was 411 nM (input ligand: FMN 200 uM), 14.3 nM under setting [1] and 426 nM (input ligand: none).
The corresponding values for “AGCUAUUAAUCAGGAUAUAGGGACAUGAGGAUCACCCAUGUAUACAUGAUGAAAUGUGAUCACGUCUAGAAGGGAUUACUAACA [SameState NG2 #40] (Eterna round: R96, puzzle: Same State NG 2)” are 236 nM, 299 nM and 134 nM.
Take “AGCUAUUAAUCAGGAUAUAGGGACAUGAGGAUCACCCAUGUAUACAUGAUGAAAUGUGGUCACGUCUAGAAGGGAUUACUAACA [SameState NG2 #41] (Eterna round: R96, puzzle: Same State NG 2)”: the “apparent KD of MS2 coat protein” value (input ligand: FMN 200 uM) worked out at 150 nM, the “apparent KD of MS2 coat protein” value under setting [1] is 184 nM and the “apparent KD of MS2 coat protein” value (input ligand: none) is 262 nM.
For “AGCUAUUAAUCAGGAUAUGGUCACAUGAGGAUCACCCAUGUGUAGAUGAUAAAAUGUGGUCAAGACUAGAAGGGAUUGCUAACA [SameState NG2 #62] (Eterna round: R96, puzzle: Same State NG 2)”, in that order: 125 nM, 49.3 nM and 95.9 nM.
The corresponding values for “AGCUAUUACGCAGGAUAUAGGGACAUGAGGAUCACCCAUGUGUACAUGAGUAAAUGUGAUCACGUCUAGAAGGGUGUACUAACA [SameState NG2 #37] (Eterna round: R96, puzzle: Same State NG 2)” are 684 nM, 326 nM and 321 nM.
“AGCUGUGGAAAACUAUAGCAAAAGUAUGUACAUGAGGAUCACCCAUGUCAUGUACAAGCUUUUUGCUCGUCUUAAAA [ak 5 mod of one Eli's designs.] (puzzle: Sensor for hsa-mir-208a)”: the “apparent KD of MS2 coat protein” value is, setting by setting: under setting [2], 42.4 nM; under setting [3], 18.7 nM; under setting [4], 90.4 nM.
For “AGGAAACAUGAGGAUCACCCAUGUAUCGAGCCGCGAGGAUAUGGGUAUCAAAGGCGAGGAUCAGAAGGUGCAGGCG [Eseddierve] (puzzle: Same State 1)”, in that order: 235 nM, 54.9 nM and 153 nM.
In the case of “AGGCUCAGACGAGGAUAUAUGUCUCGAGCUUCGGCUCGAGACAUGAGGAUCACCCAUGUAAUAACAUAGAAGGCGUCUGAGCCA [SSNG2/1-A1] (Eterna round: R96, puzzle: Same State NG 2)”, the “apparent KD of MS2 coat protein” value came out at 15.7 nM (input ligand: FMN 200 uM), 24.9 nM under setting [1] and 37 nM (input ligand: none).
The corresponding values for “AGGCUCAGACGAGGAUAUGGUCAUGGCGCUUCGGCGCAUACAUGAGGAUCACCCAUGUAGGGUGAUCAGAAGGUGUCUGAGCCA [SSNG2/9-B1] (Eterna round: R96, puzzle: Same State NG 2)” are 171 nM, 720 nM and 892 nM.
Consider “AGUAGUUUAACAUGAGGAUCACCCAUGUAUCUAUCUGUAACCUAGGAUAUGGACGUUGUAUUUAACCAGAAGGAGGAUCGUUUA [JR_SSNG3_Sub046] (Eterna round: R96, puzzle: Same State NG 3)”, for which the “apparent KD of MS2 coat protein” value under setting [1] was 22.7 nM.
Regarding “AGUCCAGCAUGAGCUGGACAAAAGCAUGUACAUGAGGAUCACCCAUGUCAUGUACAAGCUUUUUGCUCGUCUUAAAA [Mat - hsa-mir-208a - Mod of JL - D1] (puzzle: Sensor for hsa-mir-208a)”, the “apparent KD of MS2 coat protein” value is, setting by setting: under setting [2], 512 nM; under setting [3], 16.7 nM; under setting [4], 627 nM.
Regarding “AGUCCAGCAUGAGCUGGACAAAAGCAUGUACAUGAGGAUCACCCAUGUUCAUGUACAAGCUUUUUGCUCGUCUUAAG [Mat - hsa-mir-208a - Mod of JL - 63] (puzzle: Sensor for hsa-mir-208a)”, the “apparent KD of MS2 coat protein” value reads like this: under setting [2], 568 nM; under setting [3], 18 nM; under setting [4], 802 nM.
Consider “AGUCCAGCCUGAGCUGGACAAAAGCAUGUACAUGAGGAUCACCCAUGUCAUGUACAAGCUUUUUGUUCGUCUUAAUA [Zipper 49 - 13] (puzzle: Sensor for hsa-mir-208a)”, for which the “apparent KD of MS2 coat protein” value reads like this: under setting [2], 258 nM; under setting [3], 14.6 nM; under setting [4], 350 nM.
The corresponding values for “AGUCCAGCCUGAGCUGGACAAAAGCAUGUACAUGAGGAUCACCCAUGUUCAUGUACAAGCUUUUUGCUCGUCUUAGG [salish99_208a_r3_062] (puzzle: Sensor for hsa-mir-208a)” are 375 nM, 21.8 nM and 686 nM.
As for “AGUCCAGCCUGAGCUGGACAAAAGCAUGUACAUGAGGAUCACCCAUGUUCAUGUACAAGCUUUUUGCUCGUCUUAUC [salish99_208a_r3_058] (puzzle: Sensor for hsa-mir-208a)”, the “apparent KD of MS2 coat protein” value by setting is: under setting [2], 578 nM; under setting [3], 16.6 nM; under setting [4], 677 nM.
The corresponding values for “AGUCCAGCCUGAGCUGGACAAAAGCAUGUACAUGAGGAUCACCCAUGUUCAUGUACAAGCUUUUUGCUCGUCUUGGA [salish99_208a_r3_103x] (puzzle: Sensor for hsa-mir-208a)” are 350 nM, 16.2 nM and 505 nM.
For “AGUCCAGCCUGAGCUGGACAAAAGCAUGUACAUGAGGAUCACCCAUGUUCAUGUAUAAGCUUUUUGCUCGUCUUAAA [Zipper 52 - 11] (puzzle: Sensor for hsa-mir-208a)”, in that order: 18.5 nM, 10.2 nM and 17.2 nM.
The corresponding values for “AGUCCAGCCUGAGCUGGACAAAAGCGUGUACAUGAGGAUCACCCAUGUCAUGUACAAGCUUUUUGCUCGUCUUAAUA [Zipper 49 - 6] (puzzle: Sensor for hsa-mir-208a)” are 106 nM, 21.2 nM and 83.1 nM.
For the sequence “AGUCCAGCGAGAGCUGGACAAAAGCAUGUACAUGAGGAUCACCCAUGUCAUGUACAAGCUUUUUGCUCGUCUUAAAA [Mat - hsa-mir-208a - Mod of JL - D5] (puzzle: Sensor for hsa-mir-208a)”, the “apparent KD of MS2 coat protein” value runs as follows: under setting [2], 332 nM; under setting [3], 13.5 nM; under setting [4], 618 nM.
In the case of “AUAAAACAUGAGGAUCACCCAUGUCAACAAAGUCGAGGAUAUGGGCAAAUAAAAUAAGAACCAGAAGGCGUAUAAU [salish99_ss1_r3_034] (puzzle: Same State 1)”, under setting [3], the “apparent KD of MS2 coat protein” value was determined as 341 nM.
“AUAAAACAUGAGGAUCACCCAUGUCAACAAAGUCGAGGAUAUGGGCAAAUAAAAUAAGUACCAGAAGGCGAAUAAU [salish99_ss1_r3_017] (puzzle: Same State 1)”: the “apparent KD of MS2 coat protein” value under setting [2] was found to be 34.1 nM, the “apparent KD of MS2 coat protein” value under setting [3] was 106 nM and the “apparent KD of MS2 coat protein” value under setting [4] was found to be 108 nM.
Turning to “AUAAAACAUGAGGAUCACCCAUGUCAACAAAGUCGAGGAUAUUGGCAAAUAAAAUAAGAACCAGAAGGCGAAUAAU [salish99_ss1_r3_050] (puzzle: Same State 1)”, the “apparent KD of MS2 coat protein” value came out at 17.5 nM under setting [2], 23.1 nM under setting [3] and 23.4 nM under setting [4].
For “AUAAAACAUGAGGAUCACCCAUGUCUCCAAAGUCGAGGAUAUGGGCAAAUAAUAUAAGAACCAGAAGGCGAAUAAU [SS1 Teenbexe 2] (puzzle: Same State 1)”, in that order: 177 nM, 179 nM and 374 nM.
In the case of “AUAAAUAACACAGGAUAUCCGCACGGGUAGUGCGGAGAAGGGUGAACGUCGGCUCUCGCCAACAUGAGGAUCACCCAUGUAAAG [Letiusle] (Eterna round: R96, puzzle: Same State NG 1)”, the “apparent KD of MS2 coat protein” value came to 512 nM (input ligand: FMN 200 uM), 27.7 nM under setting [1] and 41.1 nM (input ligand: none).
The corresponding values for “AUCAAAAGAGGAGGAUAUGCAGAGGAUCACCCUGUAGAAGGCCACAGAGGAGGAUAUGCAGAGGAUCACCCUGUAGAAGGCCUC [pwkr ssNG DX.16] (Eterna round: R96, puzzle: Same State NG 1)” are 37.3 nM, 156 nM and 189 nM.

Values taken from the supplement of paper PMC9170038.
